US20260092097A1

How the values were obtained:
[1] = target: OVA peptide on H-2Kb (mouse); test: value cited from Alam et al. for the monovalent OT1 TCRα/β heterodimer on immobilised OVA peptide/H-2Kb; not measured in this filing; soluble, other
[2] = target: OVA peptide on H-2Kb (mouse); test: SPR, BIAcore 2000; biotinylated peptide/H2-Kb/birA on a streptavidin chip; apparent affinity of the bivalent dimer; single-chain; fusion: hIL-15 with hIL-15RαSu/birA (OT1scTCR dimer)
[3] = target: OVA peptide on H-2Kb (mouse); test: SPR; the murine single-chain CD8α/β domain of the complex binds the same peptide-MHC, so the value is not that of the TCR alone; single-chain; fusion: hIL-15, in complex with scCD8/hIL-15RαSu/birA (OT1scTCR/scCD8 heterodimer)
[4] = target: OVA (aa257-264) peptide/H-2Kb complex (mouse) (UniProt P01901); test: SPR (BIAcore 2000), biotinylated pMHCI on streptavidin chip
[5] = target: IL-15 receptor (IL-15RβγC) on 32Dβ cells (human; mouse) (UniProt P14784); test: cell-based or functional assay
[6] = target: anti-human IL-15 antibody; test: ELISA, anti-human IL-15 antibody as capture and as detection
[7] = target: anti-human IL-15 antibody; test: ELISA, anti-human IL-15 antibody as capture and as detection; reference of the table

Chain of IL-15 receptor (IL-15RβγC) on 32Dβ cells (human; mouse) (P14784 27-551, chain 1 of 2): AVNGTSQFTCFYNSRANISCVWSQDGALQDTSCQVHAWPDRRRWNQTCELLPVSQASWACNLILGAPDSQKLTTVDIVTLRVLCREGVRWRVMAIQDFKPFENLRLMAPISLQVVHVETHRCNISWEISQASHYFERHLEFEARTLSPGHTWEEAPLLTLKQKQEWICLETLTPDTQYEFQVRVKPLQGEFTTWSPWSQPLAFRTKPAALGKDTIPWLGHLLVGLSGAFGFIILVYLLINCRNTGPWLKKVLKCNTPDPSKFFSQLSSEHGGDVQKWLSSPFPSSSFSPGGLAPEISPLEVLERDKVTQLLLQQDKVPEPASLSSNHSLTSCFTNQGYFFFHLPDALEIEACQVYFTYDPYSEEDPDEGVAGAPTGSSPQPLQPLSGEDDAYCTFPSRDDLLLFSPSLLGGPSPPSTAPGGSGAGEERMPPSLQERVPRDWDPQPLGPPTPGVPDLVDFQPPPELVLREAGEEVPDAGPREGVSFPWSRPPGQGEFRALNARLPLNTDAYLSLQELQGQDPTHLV
Chain of IL-15 receptor (IL-15RβγC) on 32Dβ cells (human; mouse) (P34902 23-369, chain 2 of 2, further chain): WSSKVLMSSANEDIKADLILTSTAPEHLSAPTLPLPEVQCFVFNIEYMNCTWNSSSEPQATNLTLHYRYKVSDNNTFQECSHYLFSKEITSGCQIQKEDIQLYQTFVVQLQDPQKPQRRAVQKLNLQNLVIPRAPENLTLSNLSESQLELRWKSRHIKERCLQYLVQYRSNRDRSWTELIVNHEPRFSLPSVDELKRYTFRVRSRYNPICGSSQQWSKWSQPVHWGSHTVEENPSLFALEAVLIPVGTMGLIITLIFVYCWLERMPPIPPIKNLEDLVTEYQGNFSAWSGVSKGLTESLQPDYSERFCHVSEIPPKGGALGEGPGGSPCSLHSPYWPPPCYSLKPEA
Chain of OVA (aa257-264) peptide/H-2Kb complex (mouse) (P01901 22-305, one chain of several): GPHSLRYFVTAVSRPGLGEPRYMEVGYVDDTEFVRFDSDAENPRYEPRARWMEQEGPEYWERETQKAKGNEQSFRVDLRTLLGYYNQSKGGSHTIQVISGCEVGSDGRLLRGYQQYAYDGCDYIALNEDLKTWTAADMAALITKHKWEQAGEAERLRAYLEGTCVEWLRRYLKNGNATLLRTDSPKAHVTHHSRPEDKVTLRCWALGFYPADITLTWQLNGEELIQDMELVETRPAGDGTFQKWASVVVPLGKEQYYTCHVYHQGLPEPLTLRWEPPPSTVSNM

## OT1scTCR
[1]
  Kd: 6000 nM
[2]
  Kd: 30000 nM
[3]
  Kd: 2600 nM

## OT1scTCR dimer: OT1scTCR/hIL-15:OT1scTCR/hIL-15RαSu/birA complex (from UniProt P40933 49-162; Q13261 31-95)
[4]
  Kd: 30000 nM

## OT1scTCR/scCD8 heterodimer: OT1scTCR/hIL-15:scCD8/hIL-15RαSu/birA complex (from UniProt P40933 49-162; P01731 28-196; P10300 22-175; Q13261 31-95)
anti-murine CD8α mAb
  EC50 (read off the curve): 0.5 nM
[4]
  Kd: 2600 nM

## c264scTCR dimer: c264scTCR/hIL-15:c264scTCR/hIL-15RαSu/birA complex (from UniProt P40933 49-162; Q13261 31-95)
[5]
  32Dβ cell proliferation, half-maximal stimulation (EC50): 0.3 nM

## c264scTCR/hIL-15 fusion protein (from UniProt P40933 49-162)
[5]
  32Dβ cell proliferation, half-maximal stimulation (EC50): 0.3 nM

## c264scTCR/huIL15N72D fusion protein
[6]
  EC50 (read off the curve): 0.2 nM
[7]
  Relative activity (%): 100%
